The text below walks through data of patent US20240101688A1 (MYTHIC THERAPEUTICS, published 2024).

Test [1] deals with T1, MET Proto-Oncogene, Receptor Tyrosine Kinase (MET), on cells (human, UniProt P08581 25-1390).
T1 construct: also called cMET; c-Met
Briefly: affinity on HUVEC against affinity on Detroit-562, flow cytometry, pH 7.4. On the procedure: (§1) Measurement of the affinity of pH-engineered antibodies specific for MET was performed by FACS analysis on cell lines with ranges of cMET expression; Detroit-562 cells (ATCC; CCL-138), NCI-H1975 (ATCC CRL-5908) and HUVEC (C2519A, Lonza). Cell lines selected for this study were obtained from commercial sources and cultured using manufacturer recommended conditions. All cell lines were cultured upon receipt, expanded and cryopreserved at a similar passage number for use in the affinity experiments. Briefly, 1.0×10\hat{ }5 cells that express MET are plated per well in a 96-well plate in 100 μL media. The cells are washed two times with 200 μL of FACS buffer (1×PBS containing 3% Fetal Bovine Serum) at pH 7.4. The purified protein samples are diluted into FACS buffer at pH 7.4, for a titration from 100 nM to 1 pM, and added to the cells and allowed to bind for 2 hours on ice. After incubation with the primary antibodies, cells are washed twice as before, and then 100 μl of secondary goat anti-Human AF488 (IgG Cross-Adsorbed polyclonal secondary antibody), diluted 1:200, is added in FACS buffer pH 7.4, and incubated for 1 hour on ice. The plates are washed twice Binding is read on a flow cytometer (Accuri C6, BD Biosciences). Binding is observed as a shift in the FL1 signal (as a mean fluorescence intensity) versus secondary alone.
In general terms: In flow cytometry, cells or beads pass a laser one at a time.

The target of test [2] is T1, MET Proto-Oncogene, Receptor Tyrosine …. Briefly: flow cytometry titration on HUVEC cells (8k/cell), pH 7.4; printed as Affinity at pH 7.4; HUVEC cells (8k/cell), pH 7.4. On the procedure:
as §1

Test [3] shares this target. Briefly: flow cytometry titration on Detroit-562 cells (125K/cell), pH 7.4; printed as Affinity at pH 7.4. On the procedure:
as §1

Test [4] concerns the target T2, MET (cMET, Sino Biological Cat. No. 10692-H08H) (UniProt P08581 25-932).
T2 construct: Soluble analyte of the BLI assays
Briefly: BLI: antibody captured on anti-human Fc biosensor, MET in solution; three runs: pH 7.4 throughout, pH 6.4 throughout, association at pH 7.4 then release at lower pH (key on the sheet: pH 5.4; legend paragraph 84: pH 6.4); association 0-120 s. In general terms: Biolayer interferometry detects binding as a change in optical thickness at a sensor tip.

T1 sequence (P08581 25-1390): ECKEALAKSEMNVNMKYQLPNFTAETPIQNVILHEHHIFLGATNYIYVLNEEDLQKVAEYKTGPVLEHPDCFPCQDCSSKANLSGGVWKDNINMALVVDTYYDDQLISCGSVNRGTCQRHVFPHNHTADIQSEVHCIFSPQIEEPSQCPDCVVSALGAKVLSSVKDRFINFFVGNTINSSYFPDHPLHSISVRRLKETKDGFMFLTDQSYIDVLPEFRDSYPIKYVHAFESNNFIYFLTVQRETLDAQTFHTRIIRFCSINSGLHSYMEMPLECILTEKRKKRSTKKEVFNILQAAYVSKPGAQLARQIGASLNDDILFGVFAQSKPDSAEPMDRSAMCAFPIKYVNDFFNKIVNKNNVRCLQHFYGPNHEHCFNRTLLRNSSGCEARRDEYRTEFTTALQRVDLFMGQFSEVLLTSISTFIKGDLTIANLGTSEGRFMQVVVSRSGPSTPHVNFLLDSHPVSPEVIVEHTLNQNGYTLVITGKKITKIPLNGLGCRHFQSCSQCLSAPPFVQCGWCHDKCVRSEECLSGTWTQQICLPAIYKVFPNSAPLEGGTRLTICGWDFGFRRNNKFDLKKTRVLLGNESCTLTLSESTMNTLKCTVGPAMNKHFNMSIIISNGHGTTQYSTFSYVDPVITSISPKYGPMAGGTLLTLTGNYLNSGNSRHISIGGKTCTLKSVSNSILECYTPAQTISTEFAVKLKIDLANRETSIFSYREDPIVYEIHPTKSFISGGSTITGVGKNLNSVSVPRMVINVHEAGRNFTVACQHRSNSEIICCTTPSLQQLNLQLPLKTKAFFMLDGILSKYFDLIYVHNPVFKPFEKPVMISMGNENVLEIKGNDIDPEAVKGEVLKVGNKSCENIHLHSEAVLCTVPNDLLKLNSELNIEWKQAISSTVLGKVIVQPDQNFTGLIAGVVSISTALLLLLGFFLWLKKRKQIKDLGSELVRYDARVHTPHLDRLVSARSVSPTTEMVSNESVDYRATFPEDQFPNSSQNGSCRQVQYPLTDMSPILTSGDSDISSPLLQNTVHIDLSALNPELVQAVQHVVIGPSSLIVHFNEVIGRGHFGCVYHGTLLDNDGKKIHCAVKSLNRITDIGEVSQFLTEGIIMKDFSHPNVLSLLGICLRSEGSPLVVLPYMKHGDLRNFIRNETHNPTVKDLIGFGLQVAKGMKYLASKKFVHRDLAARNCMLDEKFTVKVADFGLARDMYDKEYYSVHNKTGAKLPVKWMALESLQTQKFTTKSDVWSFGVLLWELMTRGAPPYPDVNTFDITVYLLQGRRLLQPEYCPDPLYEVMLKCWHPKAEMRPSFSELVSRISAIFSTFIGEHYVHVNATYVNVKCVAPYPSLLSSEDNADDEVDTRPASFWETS
T2 sequence (P08581 25-932 limits assumed): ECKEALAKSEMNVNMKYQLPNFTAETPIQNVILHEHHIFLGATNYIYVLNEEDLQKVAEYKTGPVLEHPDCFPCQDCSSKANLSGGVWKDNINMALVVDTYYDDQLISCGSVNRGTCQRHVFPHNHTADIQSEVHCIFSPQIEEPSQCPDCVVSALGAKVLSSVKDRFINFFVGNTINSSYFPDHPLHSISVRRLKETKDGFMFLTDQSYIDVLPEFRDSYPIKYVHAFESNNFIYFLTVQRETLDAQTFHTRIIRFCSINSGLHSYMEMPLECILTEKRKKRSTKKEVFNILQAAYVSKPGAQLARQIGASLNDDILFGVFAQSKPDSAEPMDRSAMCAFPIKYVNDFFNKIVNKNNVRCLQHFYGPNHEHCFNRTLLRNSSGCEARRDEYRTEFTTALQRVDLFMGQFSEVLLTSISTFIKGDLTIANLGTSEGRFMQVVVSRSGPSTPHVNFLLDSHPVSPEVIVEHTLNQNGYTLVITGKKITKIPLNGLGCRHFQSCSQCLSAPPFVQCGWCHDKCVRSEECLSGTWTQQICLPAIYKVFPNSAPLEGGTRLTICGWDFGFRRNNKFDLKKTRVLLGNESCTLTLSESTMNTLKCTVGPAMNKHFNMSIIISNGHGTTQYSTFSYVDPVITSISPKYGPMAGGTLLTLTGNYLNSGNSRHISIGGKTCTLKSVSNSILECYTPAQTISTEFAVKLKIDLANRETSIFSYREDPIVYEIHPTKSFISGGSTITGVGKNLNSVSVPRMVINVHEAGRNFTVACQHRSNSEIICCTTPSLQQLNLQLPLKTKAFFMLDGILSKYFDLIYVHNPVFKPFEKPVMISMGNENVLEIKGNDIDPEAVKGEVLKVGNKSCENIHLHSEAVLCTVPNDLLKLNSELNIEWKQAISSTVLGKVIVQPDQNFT

B1: MYT4325 (antibody, V domains shown)
VH: QVQLVQSGAEVKKPGASVKVSCKASGYTFTSYWMHWVKQAPGQGLDWIGYIKPSTDNTHYNQKFKDKATLTADKSTSTAYMELSSLRSEDTAVYYCARSYGHYPLMHYWGQGTTVTVSS
VL: QIVLTQSPAILSLSPGERATLSCSASSSVTSNYLYWYQQKPGSSPKLLIYSTSNLASGVPARFSGSGSGTSYTLTISSLEAEDAASYFCHQWSSYPPTFGSGTKLEIKR
notes: P3D12 variant
Consider B1, for which, in test [1], the “Fold Avidity” value was over 220 fold. Also, the results for the Kd in test [2] and in test [3] were over 200 nM and 0.903 nM, respectively.

B2: MYT4940 (antibody, V domains shown)
VH: QVQLVQSGAEVKKPGASVKVSCKASGYIFTAYTMHWVRQAPGQGLEWMGWIKPNNGLANYAQKFQGRVTMTRDTSISTAYMELSRLRSDDTAVYYCARHEITTEFDHWGQGTLVTVSS
VL: DIVMTQSPDSLAVSLGERATINCKSSESVDSYANSHLHWYQQKPGQPPKLLIYRASTRESGVPDRFSGSGSGTDFTLTISSLQAEDVAVYYCQQSKEDPLTFGGGTKVEIKR
notes: Telisotuzumab variant
B2: the binding result in test [4] is on record as “binds”.
